Experimental data published in patent US20130130320, “ENZYMES” (published 2013).

T1: TGK (TgoT Y409G E664K) (Thermococcus gorgonarius, UniProt P56689 SEQ:1-773, Y409G,E664K)
T1 sequence: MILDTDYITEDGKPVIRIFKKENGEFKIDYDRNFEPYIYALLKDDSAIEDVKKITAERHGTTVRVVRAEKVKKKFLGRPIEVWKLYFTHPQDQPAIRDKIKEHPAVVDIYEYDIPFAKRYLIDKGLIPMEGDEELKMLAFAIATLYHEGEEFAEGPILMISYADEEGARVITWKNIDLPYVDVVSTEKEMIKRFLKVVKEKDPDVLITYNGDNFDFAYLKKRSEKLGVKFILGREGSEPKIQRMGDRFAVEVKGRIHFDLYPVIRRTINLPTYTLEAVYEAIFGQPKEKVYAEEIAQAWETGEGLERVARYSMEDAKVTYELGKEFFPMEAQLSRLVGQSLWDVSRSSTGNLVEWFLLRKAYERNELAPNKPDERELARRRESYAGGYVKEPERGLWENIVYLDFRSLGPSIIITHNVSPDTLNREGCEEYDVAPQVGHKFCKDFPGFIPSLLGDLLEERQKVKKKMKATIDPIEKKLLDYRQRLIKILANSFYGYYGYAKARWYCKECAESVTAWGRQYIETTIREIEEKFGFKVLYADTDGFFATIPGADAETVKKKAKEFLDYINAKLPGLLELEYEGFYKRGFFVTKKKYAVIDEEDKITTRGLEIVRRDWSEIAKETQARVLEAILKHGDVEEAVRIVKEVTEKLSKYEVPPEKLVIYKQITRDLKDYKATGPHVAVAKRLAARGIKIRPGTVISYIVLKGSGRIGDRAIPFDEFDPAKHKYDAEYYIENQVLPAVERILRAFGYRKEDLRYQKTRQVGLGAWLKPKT

B1: K0 DNA primer / TempK4 (dsDNA)
DNA 1: GCACGGCAGCACGTG
DNA 2: ACTGCGATGACTGTACTCGTCTAGTAGCACTGCACGTGCTGCCGTGC

Assays:
Tat (HIV-1?) = assay: competition
TGK (TgoT Y409G E664K) = molecular target: T1, TGK (TgoT Y409G E664K); assay: EMSA; second gate mutation vs parental E664; individual mutants and Kd values not stated; Thermopol, 1 mM EDTA; settings: label: 5'-FITC primer, 5'-biotin template, 5' template overhang
Protocol: The reactions were mixed, heated to 94° C. for 30 sec and cooled at 0.1° C./sec to 4° C. before loading onto precooled 6% TBE gel (Invitrogen) and run for 1 h at 100V in precooled 1×TBE. Bands were quantified using a Typhoon Trio and ImageQuant and the shift fitted to y=(Bmax*x)/(Kd+x) using MatLab (The MathWorks Ltd).

Molecule	IC50 (Tat (HIV-1?); IC50 of HNA aptamer T5S8-7 displacing Tat from immobilised miniTAR (CI95 1.3-2.8)) [nM]	IC50 (Tat (HIV-1?); IC50 of RNA aptamer R06 displacing Tat from immobilised miniTAR (CI95 166-675)) [nM]	binding result (TGK (TgoT Y409G E664K))
miniTAR RNA	1.9	313	–
B1	–	–	binds
